The target of assay [1] is Csy2 of Z. mobilis Type I-F CRISPR/Cas complex (Zymomonas mobilis). Briefly: split reporter (BiFC, NanoBiT); SPEC profiling of CRISPR/Cas effectors and Cas3 / Cas2-3 mutants in E. coli cells; sfGFP fluorescence by flow cytometry; interaction intensity normalized to cells expressing wt HRV 3 C protease.
Assay [2] has as its target Csy3 of Z. mobilis Type I-F CRISPR/Cas complex (Zymomonas mobilis). The description is as above.
The target in assay [3] is Csy4 of Z. mobilis Type I-F CRISPR/Cas complex (Zymomonas mobilis). The assay is described as above.
Assay [4] has as its target Csy1 of Z. mobilis Type I-F CRISPR/Cas complex (Zymomonas mobilis). The description is as above.
Assay [5] has as its target Cas1 of Z. mobilis Type I-F CRISPR/Cas complex (Zymomonas mobilis). Described as above.
The target in assay [6] is Cas1 of Z. mobilis Type I-F CRISPR/Cas complex. Briefly: SPEC system (split protease-E. coli ClpXP) in E. coli cells. The settings on record: parent: 100; read off a plot.
In assay [7] the target is Csy3 of Z. mobilis Type I-F CRISPR/Cas complex. Described as above. The conditions noted are these: parent: 100; read off a plot.
Assay [8] addresses Csy4 of Z. mobilis Type I-F CRISPR/Cas complex. Described as above. The settings on record: parent: 100; read off a plot.
Assay [9] deals with Csy2 of Z. mobilis Type I-F CRISPR/Cas complex. The description is as above. The conditions noted are these: parent: 100; read off a plot.
Assay [10] concerns the target T1, Cas7 of E. coli K12 Type I-E CRISPR/Cas complex (E. coli K12, UniProt Q46899 1-363).
T1 construct: Cas7, effector of the type I-E CRISPR/Cas complex of E. coli K12; source: E. coli BL21(DE3) or BL21(DE3)-SPEC, expressed in the cells (IPTG induction)
T1 sequence (looked up): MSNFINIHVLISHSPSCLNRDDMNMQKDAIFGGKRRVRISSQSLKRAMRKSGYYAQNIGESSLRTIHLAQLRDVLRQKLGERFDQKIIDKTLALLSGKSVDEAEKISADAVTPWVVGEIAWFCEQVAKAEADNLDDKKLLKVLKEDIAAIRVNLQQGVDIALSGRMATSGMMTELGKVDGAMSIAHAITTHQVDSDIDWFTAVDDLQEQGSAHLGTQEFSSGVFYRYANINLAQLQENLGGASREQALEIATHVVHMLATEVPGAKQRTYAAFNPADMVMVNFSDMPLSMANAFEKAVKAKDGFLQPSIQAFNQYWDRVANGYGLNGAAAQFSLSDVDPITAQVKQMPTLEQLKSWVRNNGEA
The experiment in a line: split reporter (BiFC, NanoBiT); SPEC profiling of CRISPR/Cas effectors and Cas3 / Cas2-3 mutants in E. coli cells; sfGFP fluorescence by flow cytometry; interaction intensity normalized to cells expressing wt HRV 3 C protease. The conditions noted are these: partners not purified.

The target of assay [11] is T2, Cas2 of E. coli K12 Type I-E CRISPR/Cas complex (E. coli K12, UniProt P45956 1-94).
T2 construct: Cas2, effector of the type I-E CRISPR/Cas complex of E. coli K12; source: E. coli BL21(DE3) or BL21(DE3)-SPEC, expressed in the cells (IPTG induction)
T2 sequence (looked up): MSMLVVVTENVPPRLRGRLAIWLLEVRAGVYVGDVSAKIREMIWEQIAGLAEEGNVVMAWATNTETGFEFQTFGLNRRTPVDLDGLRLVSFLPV
The description is as above. The settings on record: partners not purified.

Assay [12] addresses T3, Cas5 of E. coli K12 Type I-E CRISPR/Cas complex (E. coli K12, UniProt Q46898 1-224).
T3 construct: Cas5, effector of the type I-E CRISPR/Cas complex of E. coli K12; source: E. coli BL21(DE3) or BL21(DE3)-SPEC, expressed in the cells (IPTG induction)
T3 sequence (looked up): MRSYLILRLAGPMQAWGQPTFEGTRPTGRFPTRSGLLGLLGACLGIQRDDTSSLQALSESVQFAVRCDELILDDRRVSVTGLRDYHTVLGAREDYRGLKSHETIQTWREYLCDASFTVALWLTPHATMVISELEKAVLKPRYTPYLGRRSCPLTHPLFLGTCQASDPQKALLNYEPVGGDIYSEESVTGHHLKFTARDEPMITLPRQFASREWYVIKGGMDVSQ
Described as above. The settings on record: partners not purified.

The target of assay [13] is T4, Cas11 of E. coli K12 Type I-E CRISPR/Cas complex (E. coli K12, UniProt P76632 1-160).
T4 construct: Cas11, effector of the type I-E CRISPR/Cas complex of E. coli K12; source: E. coli BL21(DE3) or BL21(DE3)-SPEC, expressed in the cells (IPTG induction)
T4 sequence (looked up): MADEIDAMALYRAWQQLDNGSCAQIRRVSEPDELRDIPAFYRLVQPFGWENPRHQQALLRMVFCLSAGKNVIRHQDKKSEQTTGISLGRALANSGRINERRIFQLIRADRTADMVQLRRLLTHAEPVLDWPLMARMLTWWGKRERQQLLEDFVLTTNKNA
The assay is described as above. The settings on record: partners not purified.

Some results are limits rather than exact numbers.

From paper PMC8260793, “A split protease-E. coli ClpXP system quantifies protein–protein interactions in Escherichia coli cells” (Communications Biology, 2021) come the findings set out here.

For “Cas1 of Z. mobilis Type I-F CRISPR/Cas complex (natural protein)”, the results for the normalized interaction intensity in assay [1], in assay [2] and in assay [3] were more than 80%, 14% and more than 80%, respectively.
On to “Cas2-3 D124A (Z. mobilis Type I-F) (natural protein)”, for which the increase of the interaction over Cas2-3 wild type in [4] was more than 40%.
Consider “Cas2-3 D608N (Z. mobilis Type I-F) (natural protein)”, for which, in [4], the increase of the interaction over Cas2-3 wild type was more than 40%.
Take “Cas2-3 H123A (Z. mobilis Type I-F) (natural protein)”: the increase of the interaction over Cas2-3 wild type in assay [4] is more than 40%.
On to “Cas2-3 K127A (Z. mobilis Type I-F) (natural protein)”, for which the normalized interaction intensity in assay [4] came to 10%; in assay [1], 21%.
As to “Cas2-3 K458N (Z. mobilis Type I-F) (natural protein)”, in assay [4], the increase of the interaction over Cas2-3 wild type was more than 40%.
Still for that read-out and setting: the value for “Cas2-3 S639A/T641A (Z. mobilis Type I-F) (natural protein)” was more than 40%.
Take “Cas2-3 of Z. mobilis Type I-F CRISPR/Cas complex (natural protein)”: the normalized interaction intensity was 99% in [5]; 63% in [4]; 88% in [1]; more than 80% in assay [2]; more than 80% in assay [3].
“Cas2-3 of Z. mobilis Type I-F CRISPR/Cas complex D124A”: the percent of parent in assay [6] was 95%; in assay [7] it was 110%; in [8], 110%.
For “Cas2-3 of Z. mobilis Type I-F CRISPR/Cas complex D608N”, the percent of parent in assay [9] came to 78%; in assay [7] it was 110%; in assay [8], 110%.
“Cas2-3 of Z. mobilis Type I-F CRISPR/Cas complex H123A”: the percent of parent in assay [7] and in assay [8] was 110% in each case.
With “Cas2-3 of Z. mobilis Type I-F CRISPR/Cas complex K127A”, the percent of parent in [7] and in assay [8] was 110% each time.
On to “Cas2-3 of Z. mobilis Type I-F CRISPR/Cas complex K458N”, for which the percent of parent was determined as 97% in [6], 110% in assay [9], 120% in [7] and 110% in [8].
As to “Cas2-3 of Z. mobilis Type I-F CRISPR/Cas complex S639A; T641A”, the percent of parent in assay [9], in assay [7] and in assay [8] was 110% throughout.
As to “Csy1 of Z. mobilis Type I-F CRISPR/Cas complex (natural protein)”, the normalized interaction intensity in assay [1] and in assay [3] was more than 80% throughout.

B1: Cas6 of E. coli K12 Type I-E CRISPR/Cas complex (natural protein, UniProt Q46897 1-199, looked up)
chain: MYLSKVIIARAWSRDLYQLHQGLWHLFPNRPDAARDFLFHVEKRNTPEGCHVLLQSAQMPVSTAVATVIKTKQVEFQLQVGVPLYFRLRANPIKTILDNQKRLDSKGNIKRCRVPLIKEAEQIAWLQRKLGNAARVEDVHPISERPQYFSGDGKSGKIQTVCFEGVLTINDAPALIDLVQQGIGPAKSMGCGLLSLAPL
notes: Cas6, effector of the type I-E CRISPR/Cas complex of E. coli K12; source: E. coli BL21(DE3) or BL21(DE3)-SPEC, expressed in the cells (IPTG induction)
As for B1, the normalized interaction intensity in [10] was more than 80%.

B2: Cas3 of E. coli K12 Type I-E CRISPR/Cas complex (natural protein, UniProt P38036 1-888, looked up)
chain: MEPFKYICHYWGKSSKSLTKGNDIHLLIYHCLDVAAVADCWWDQSVVLQNTFCRNEMLSKQRVKAWLLFFIALHDIGKFDIRFQYKSAESWLKLNPATPSLNGPSTQMCRKFNHGAAGLYWFNQDSLSEQSLGDFFSFFDAAPHPYESWFPWVEAVTGHHGFILHSQDQDKSRWEMPASLASYAAQDKQAREEWISVLEALFLTPAGLSINDIPPDCSSLLAGFCSLADWLGSWTTTNTFLFNEDAPSDINALRTYFQDRQQDASRVLELSGLVSNKRCYEGVHALLDNGYQPRQLQVLVDALPVAPGLTVIEAPTGSGKTETALAYAWKLIDQQIADSVIFALPTQATANAMLTRMEASASHLFSSPNLILAHGNSRFNHLFQSIKSRAITEQGQEEAWVQCCQWLSQSNKKVFLGQIGVCTIDQVLISVLPVKHRFIRGLGIGRSVLIVDEVHAYDTYMNGLLEAVLKAQADVGGSVILLSATLPMKQKQKLLDTYGLHTDPVENNSAYPLINWRGVNGAQRFDLLAHPEQLPPRFSIQPEPICLADMLPDLTMLERMIAAANAGAQVCLICNLVDVAQVCYQRLKELNNTQVDIDLFHARFTLNDRREKENRVISNFGKNGKRNVGRILVATQVVEQSLDVDFDWLITQHCPADLLFQRLGRLHRHHRKYRPAGFEIPVATILLPDGEGYGRHEHIYSNVRVMWRTQQHIEELNGASLFFPDAYRQWLDSIYDDAEMDEPEWVGNGMDKFESAECEKRFKARKVLQWAEEYSLQDNDETILAVTRDGEMSLPLLPYVQTSSGKQLLDGQVYEDLSHEQQYEALALNRVNVPFTWKRSFSEVVDEDGLLWLEGKQNLDGWVWQGNSIVITYTGDEGMTRVIPANPK
notes: Cas3, effector of the type I-E CRISPR/Cas complex of E. coli K12; source: E. coli BL21(DE3) or BL21(DE3)-SPEC, expressed in the cells (IPTG induction)
As for B2, the normalized interaction intensity was 56% in assay [11] and more than 80% in [12].

B3: Cas1 of E. coli K12 Type I-E CRISPR/Cas complex (natural protein, UniProt Q46896 1-305, looked up)
chain: MTWLPLNPIPLKDRVSMIFLQYGQIDVIDGAFVLIDKTGIRTHIPVGSVACIMLEPGTRVSHAAVRLAAQVGTLLVWVGEAGVRVYASGQPGGARSDKLLYQAKLALDEDLRLKVVRKMFELRFGEPAPARRSVEQLRGIEGSRVRATYALLAKQYGVTWNGRRYDPKDWEKGDTINQCISAATSCLYGVTEAAILAAGYAPAIGFVHTGKPLSFVYDIADIIKFDTVVPKAFEIARRNPGEPDREVRLACRDIFRSSKTLAKLIPLIEDVLAAGEIQPPAPPEDAQPVAIPLPVSLGDAGHRSS
notes: Cas1, effector of the type I-E CRISPR/Cas complex of E. coli K12; source: E. coli BL21(DE3) or BL21(DE3)-SPEC, expressed in the cells (IPTG induction)
On to B3, for which the normalized interaction intensity is 92% in assay [11], more than 80% in assay [12] and more than 80% in [13].
